{"source": "the DeepSol protein solubility set"}
{"assay": "soluble on expression in E. coli; label from the status in PepcDB or PDB records"}
{"sequence": "MSLKKETLSDRLNKAMELAGMSQGALAKASGVAQPTIWRLTSGNARGSTKIVEIANALGVNSEWLSTGIGPMKKDGTTPINASPSSNTFKIDILDLEVSAGPGVINREFVEILRSVEYSQDDARHMFDGRKAENIRIINVRGDSMSGTIEPGDLLFVDVSIKNFDGDGIYAFLYDDTAHVKRLQKMKDKLLVISDNKSYSAWDPIERDEMNRVFVFGKVIGSMPQTYRKHGEGHHHHHH", "soluble on expression in E. coli": "soluble"}
{"sequence": "MGSDKIHHHHHHMVIKEFNSLNTELVREIEKLTETCGKFDGIQEEVNLDDGFNFNKSMKWLFVLYEKDKVVSVVSIFAPKEEEGEISACTLPEYRRKGYFKELLSKAKNELLKYNVPKILFVCPKGSKQGEAVIKNSDAIYKFAEYTMNFNKNKFKAKGKYITKLAEANYNDLNKITKVASDVYSESYEQANSMMKNALESSDRLQFKLKLKEDYIGVVAAYFYHDKVSIFGVGILPEYRGRGFGREMMSMLLEYLIERDYDDIALEVDSNNKRAFELYKSIGFQIEREIDYYEEKINNTFYSY", "soluble on expression in E. coli": "not soluble"}
{"sequence": "GVVETPRSALKVTAQPNDVLLGNYVVLSPQTVLKSSKLAPVHPLAEQVKIITHNGRAGGYQVDGYDGRVLLPCGSAIPVPEFQALSESATMVYNEREFVNRKLYHIAVHGPSLNTDEENYEKVRAERTDAEYVFDVDKKCCVKREEASGLVLVGELTNPPFHEFAYEGLKIRPSAPYKTTVVGVFGVPGSGKSAIIKSLVTKHDLVTSGKKENCQEIVNDVKKHRGKGTSRENSDSILLNGCRRAVDILYVDEAFACHSGTLLALIALVKPRSKVVLCGDPKQCGFFNMMQLKVNFNHNICTEVCHKSISRRCTRPVTAIVSTLHYGGKMRTTNPCNKPIIIDTTGQTKPKPGDIVLTCFRGWAKQLQLDYRGHEVMTAAASQGLTRKGVYAVRQKVNENPLYAPASEHVNVLLTRTEDRLVWKTLAGDPWIKVLSNIPQGNFTATLEEWQEEHDKIMKVIEGPAAPVDAFQNKANVCWAKSLVPVLDTAGIRLTAEEWSTIITAFKEDRAYSPVVALNEICTKYYGVDLDSGLFSAPKVSLYYENNHWDNRPGGRMYGFNAATAARLEARHTFLKGQWHTGKQAVIAERKIQPLSVLDNVIPINRRLPHALVAEYKTVKGSRVEWLVNKVRGYHVLLVSEYNLALPRRRVTWLSPLNVTGADRCYDLSLGLPADAGRFDLVFVNIHTEFRIHHYQQCVDHAMKLQMLGGDALRLLKPGGILMRAYGYADKISEAVVSSLSRKFSSARVLRPDCVTSNTEVFLLFSNFDNGKRPSTLHQMNTKLSAVYAGEAMHTAGC", "soluble on expression in E. coli": "soluble"}
{"sequence": "MAHHHHHHMNTFNYIRSPTGVHEVDGPPNDCVSTVRFSPSGCPYLLLGAASWDKTCRVWQVIHQPNAINIRSQPMTFAVSDAPILDMSFSADGRVFWGGCSKTATMWNLTTNQKIIVGSHDLPVSCIAHVSSNTGTEMLVTGSWDGRLRFWDLRQPMPIKEEILGEPVFGLDAQRSFPMAACVTGRKVHIFNLQTMMKTNELKPPPLLKFNLGCVACSPQKDGVVVGSSEGRLSFIPLQAEVGCTFKAHVLVEDNVLYMHQTNFCVISPRVPHMISGGGDGRIGCWDYKKRSIVGYGESETRLENRNKSISAGDISADGSLLAFARSYDWAMGKTGCIPNEPHSIHIRSAEWKSALS", "soluble on expression in E. coli": "not soluble"}
{"sequence": "MSTQKRAIAKTDMLKFTETSQPIGQKKYVELSKDIFIFSYLCGGINFTDIANLTQENIVNGRLHYIRQKTGKLIKIGIPQEAMQIIKKYTDESNGYLFPILNVKVHKTALQKQNRIHKIRGKVNDILKTLGKRLGIEANITTYVARHSFASVLKKSGVNIALISEALGHSDLATTQIYLDSFDNEQVDEAMKNLLEHHHHHH", "soluble on expression in E. coli": "not soluble"}
{"sequence": "MSRYLITFDMDTNCLKDNYHGNNYTNAYSDIKTILARHGFENIQGSVYLGREGISEAHGTIAIQELTARFDWFYSCISNIKFYRLESDLNAQFIADGVYQAKQAFLQRVEQLRISLTEAGLSDEQINQVLEKQKFELESPNLKLN", "soluble on expression in E. coli": "not soluble"}
{"sequence": "MNITVPKKLLSDQLSLLERIVPSRSANPLYTYLGLYAEEGALILFGTNGEVDLEVRLPAEAQSLPRVLVPAQPFFQLVRSLPGDLVALGLASEPGQGGQLELSSGRFRTRLSLAPAEGYPELLVPEGEDKGAFPLRTRMPSGELVKALTHVRYAASNEEYRAIFRGVQLEFSPQGFRAVASDGYRLALYDLPLPQGFQAKAVVPARSVDEMVRVLKGADGAEADLALGEGVLALALEGGSGVRMALRLMEGEFPDYQRVIPQEFALKVQVEGEALREAVRRVSVLSDRQNHRVDLLLEEGRILLSAEGDYGKGQEEVPAQVEGPGMAVAYNARYLLEALAPVGDRAHLGISGPTSPSLIWGDGEGYRAVVVPLRV", "soluble on expression in E. coli": "soluble"}
{"sequence": "MYTEYQPSRLLAPYIDNYWEFKGTPEYGMRIHILPDGCTDFIFTLGEAVSKVKEETLVMQPYRSYFVGPMTKYSELVTYAEFVHQFGVRFLPCGLSGFTKLPLHEFANYRISTNEMQAVFDSTFIERLCEQNDVRGRIQVVEEYLLAYLAHNYQPVDTQVAAAVNIINQSAGKRSVRSLMDEVCLCQRHFERKFKHNTGFTPKEYSRIVKFKNAVELLRNTTSVNLLTTAIDAGYYDLAHFSKEIKTLSGNTPSSFLSLTVPEDITLTYIEP", "soluble on expression in E. coli": "soluble"}
{"sequence": "MVATEKKFTLRHIFKNVSQLEDGKYLYSPDEDHFNVDWNMSISHKKEKLGVYFYCYKSEESASAWSIDTEYDLALKNSSGKRISIDFKYKFSTSTGFGTAELVSWDAMIKDYLIDDVIIMEATVKIINLMGIPKKTLRTFDESNEEFSDVILTVEDEKFYVLKQFLASHSSHFKTLFLRKCEEEAEKSEYTLQDINSIDFQNLLEVLHGEPAIDEETVQGIRDLADKYDMPFPTRKCEEFLIDLSEKSIKEKLKIAKQFQLEKLKMHCLSKIETVDHIKAAMTGDPIEMDLSVLAALLGKSLALH", "soluble on expression in E. coli": "not soluble"}
{"sequence": "MSLSDRLTAFKELIQAGGAKRPADLIIKNGQLVNVMTAEIYPAEVAIYQGKIVAVDPDVSAYQGTETRVIDAKQQYIVPGLIDGHIHVECSKLSMTSFAEAVVPHGTTSIISGLDEYISVIGVDGLSEIFKEVDQLPMRVFWGAPFKTPYTIPASTIADNIDSTVQAQLQKRSDVYGVWETVREAVETLDEDTLKTLLNAQDNHVPVWGCAPMATGTKLNEYLMSGVRVDHESYDHQELLEKVRKGINVVIRESSVTHFLAENIRAITETNGQIARHVSFCTDDVNAMDIVNKGHLDHLVRLAIAAGVAPMTAIQMATINSAEAYRIDDQVGLIAPGRNADILLVSDLEAFEIKRVLAKGQPVATDGHINQSIERPVRPASLANTIIREAVQASDFEYHVAADASQVTVQTIASEGPFVRHAKTKTLTVEDGIVQIDPAKDVALISVLERFGKNGNQSLGFTSGWTLKKGAMASTAAPDDNNIIVMGVNPDDMALAVNTLIERDGGQVVVADGQILSFLPLPIAGIVSDVTPAELAVQEEGILKASQAIGSEVVDPMFYMTFLPITAIPDLAITDLGNVDCNELRLFDPILTIQEGHHHHHH", "soluble on expression in E. coli": "soluble"}
{"sequence": "SKELKVLVLCAGSGTSAQLANAINEGANLTEVRVIANSGAYGAHYDIMGVYDLIILAPQVRSYYREMKVDAERLGIQIVATRGMEYIHLTKSPSKALQFVLEHYQ", "soluble on expression in E. coli": "not soluble"}
{"sequence": "MAEITEKVLKKPNAIPDVFERKGGSAPTATHYCAGCGHGIIHKLMAEAIDELEIQDRCVLISPVGCAVFAYYYFDCGNIQVAHGRAPAVGTGVSRAEDNAIVMSYQGDGDLASIGLNETIQAANRGEKMAVFFVNNTVYGMTGGQMAPTTLIGEKTVTCQTGRDPRFAGYPIHMCELLSSLKAPVFIERVSVSDIAHIRKAKRAIKKALEIQRDGKGYAFVEILSPCPTNLRQDANAAQKFINEEMEKEFPLQNFRDRSAEVETLNRGESDFSKECLDNIFEVNSKGAEDPSEDLSFE", "soluble on expression in E. coli": "not soluble"}
{"sequence": "MPKSEIRKLLQEIKKQVDNPGNSSTTEIKKMASEAGIDEQTAEEIYHLLTEFYQAVEEHGGIEKYMHSNISWLKIELELLSACYQIAILEDMKVLDISEMLSLNDLRIFPKTPSQLQNTYYKLKKELIQVEDIPKNKPGRKRKTQKNTKKEKTNIFGKVVPALEHHHHHH", "soluble on expression in E. coli": "soluble"}
{"sequence": "LLFLSRERGPSQSTPSLISSAAPTMIKMEVNGHGKAMALGEGPPLPAGVQVPAGPQTVMGPGLAPMLAPPPRRTPKQHNCQSCGKTFSSASALQIHERTHTGEKPFGCTICGRAFTTKGNLKVHMGTHMWNNAPARRG", "soluble on expression in E. coli": "soluble"}
{"sequence": "MSEPSNNSEKVPDEVQEIRDAENTFNSIQRCTTTLKGFQKSYDELKLQRKQSLQTIRQHEADIQQLEQGIRVHTAAFQLLRRLLSEIRRPNQILQEALQARHIEIEAFDDEAERLNVLIVEERRNLVELQAARKIRKSYLIVFQKQIAQLKAENKDEEATPAQEQMTKKSLKRRRDDEDDETGPSARRAPNSVGAF", "soluble on expression in E. coli": "soluble"}
